Assay results as given in PMC5223167.

Target: T1, PPE2 (Mycobacterium tuberculosis (BAC-Rv329 …, UniProt P9WI47))
T1 sequence: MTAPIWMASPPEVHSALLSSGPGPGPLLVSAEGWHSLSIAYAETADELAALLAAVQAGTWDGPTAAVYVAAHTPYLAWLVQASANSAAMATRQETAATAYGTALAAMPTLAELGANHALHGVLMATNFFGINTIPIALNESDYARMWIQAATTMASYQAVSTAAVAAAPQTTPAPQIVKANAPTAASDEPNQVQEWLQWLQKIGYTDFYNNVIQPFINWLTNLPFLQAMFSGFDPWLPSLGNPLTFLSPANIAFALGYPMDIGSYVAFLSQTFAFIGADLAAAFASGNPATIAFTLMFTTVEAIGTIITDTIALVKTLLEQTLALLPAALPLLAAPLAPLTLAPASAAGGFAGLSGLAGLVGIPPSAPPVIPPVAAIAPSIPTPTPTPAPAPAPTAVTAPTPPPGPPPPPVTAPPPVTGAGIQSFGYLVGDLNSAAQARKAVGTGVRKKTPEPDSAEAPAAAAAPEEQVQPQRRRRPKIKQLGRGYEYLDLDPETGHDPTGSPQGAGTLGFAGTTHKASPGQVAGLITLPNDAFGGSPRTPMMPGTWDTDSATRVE
Assay: EMSA; 20 mM HEPES (pH not stated), 0.5 mM DTT, 0.5 mM EDTA, 5% glycerol, room temperature, 30 min; […]
Details: protein: recombinant; tags: N-terminal His (pRSET A); label: 32P 5' end; blunt

B1: inos proximal GATA-1 element (overlaps TATA box) (dsDNA)
DNA 1: GGGGTATAAATACCTGATGGCTGCTGCCAG
DNA 2: CTGGCAGCAGCCATCAGGTATTTATACCCC
binding result: binds

B2: GATA consensus (dsDNA)
DNA 1: CACTTGATAACAGAAAGTGATAACTCT
DNA 2: AGAGTTATCACTTTCTGTTATCAAGTG
binding result: binds

B3: IRF-1 consensus (dsDNA)
DNA 1: CACTGTCAATATTTCACTTTCATAATG
DNA 2: CATTATGAAAGTGAAATATTGACAGTG
binding result: no binding

B4: NF-kB consensus (dsDNA)
DNA 1: AGTTGAGGGGACTTTCCCAGGC
DNA 2: GCCTGGGAAAGTCCCCTCAACT
binding result: no binding
